We go through 1 substance from doi:10.1101/2024.01.16.575844.

The target in this experiment is C3b (human) (UniProt P01024). In words: radioligand binding.
UniProt P01024, sequence (P01024 whole entry, looked up): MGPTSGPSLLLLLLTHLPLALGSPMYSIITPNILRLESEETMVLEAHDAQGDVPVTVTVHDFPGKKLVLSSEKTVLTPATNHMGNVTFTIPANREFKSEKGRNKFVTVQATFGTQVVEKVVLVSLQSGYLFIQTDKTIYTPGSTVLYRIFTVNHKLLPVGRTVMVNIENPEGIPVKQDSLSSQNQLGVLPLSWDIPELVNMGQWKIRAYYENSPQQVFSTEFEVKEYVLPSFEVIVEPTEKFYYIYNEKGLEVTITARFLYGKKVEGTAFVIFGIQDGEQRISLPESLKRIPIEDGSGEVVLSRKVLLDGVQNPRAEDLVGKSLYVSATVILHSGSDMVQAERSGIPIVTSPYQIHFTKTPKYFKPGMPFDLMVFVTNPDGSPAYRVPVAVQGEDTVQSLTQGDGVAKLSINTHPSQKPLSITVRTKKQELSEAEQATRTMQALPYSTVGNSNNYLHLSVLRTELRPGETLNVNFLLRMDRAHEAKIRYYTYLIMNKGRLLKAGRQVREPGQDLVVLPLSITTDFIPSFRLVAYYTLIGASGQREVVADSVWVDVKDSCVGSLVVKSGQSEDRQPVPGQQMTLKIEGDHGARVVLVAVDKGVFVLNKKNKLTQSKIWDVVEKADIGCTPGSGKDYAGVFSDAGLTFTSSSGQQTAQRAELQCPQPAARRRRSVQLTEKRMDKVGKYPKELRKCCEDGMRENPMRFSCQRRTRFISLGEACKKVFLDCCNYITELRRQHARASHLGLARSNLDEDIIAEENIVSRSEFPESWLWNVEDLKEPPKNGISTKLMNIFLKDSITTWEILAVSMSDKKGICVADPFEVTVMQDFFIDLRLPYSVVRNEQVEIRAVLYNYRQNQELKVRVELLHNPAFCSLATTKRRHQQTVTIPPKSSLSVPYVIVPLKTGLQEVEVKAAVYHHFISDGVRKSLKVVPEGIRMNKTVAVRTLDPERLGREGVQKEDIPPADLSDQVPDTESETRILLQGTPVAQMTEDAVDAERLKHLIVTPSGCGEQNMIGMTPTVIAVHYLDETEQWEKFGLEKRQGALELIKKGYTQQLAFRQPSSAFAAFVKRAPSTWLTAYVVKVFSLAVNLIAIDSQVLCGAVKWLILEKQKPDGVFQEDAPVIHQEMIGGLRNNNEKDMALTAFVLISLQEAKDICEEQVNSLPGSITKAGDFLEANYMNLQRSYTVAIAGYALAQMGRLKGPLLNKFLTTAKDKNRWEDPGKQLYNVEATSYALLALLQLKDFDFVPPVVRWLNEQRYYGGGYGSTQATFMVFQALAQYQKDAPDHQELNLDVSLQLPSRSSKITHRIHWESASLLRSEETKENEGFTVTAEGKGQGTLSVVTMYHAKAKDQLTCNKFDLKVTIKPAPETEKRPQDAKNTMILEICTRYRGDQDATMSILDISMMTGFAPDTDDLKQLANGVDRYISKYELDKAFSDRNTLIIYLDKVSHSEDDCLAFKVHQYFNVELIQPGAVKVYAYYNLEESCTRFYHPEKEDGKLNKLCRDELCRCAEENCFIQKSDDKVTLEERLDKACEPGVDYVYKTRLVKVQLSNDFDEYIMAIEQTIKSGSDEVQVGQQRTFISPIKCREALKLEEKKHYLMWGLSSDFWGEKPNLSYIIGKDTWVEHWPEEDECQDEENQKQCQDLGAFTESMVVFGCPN

In turn, complement factor B (natural protein) yielded a binding in 5 mM EDTA as percent of that in 0.2 mM Mg2+ of 60 to 70%, a percent by which binding in 5 mM Mg2+ exceeds that in 0.02 mM Mg2+ of 50% and a percent inhibition of 125I-labelled factor B binding to C3b-thiol Sepharose of 100%.
